Residue numbers refer to the chain shown, from its start. Blank lines part the entries; values can stand above or below the molecule they belong to.
Columns and labels:
human ARG2 (trimer) = target: T1, human ARG2 (trimer) (Homo sapiens, UniProt P78540); assay: Mechanism of action study (effect on ARG2 Vmax and Km) in trimeric ARG2 enzyme inhibition assay; format: biochemical; details: for Km / Vmax: arginine 2.5-250 mM; for mode of action on ARG2: from effects on Vmax and Km
T1 construct: human ARG2 (aa23-354); His10 (C); made in house; host or cells: E. coli BL21 (DE3)
T1 sequence (P78540 23-354): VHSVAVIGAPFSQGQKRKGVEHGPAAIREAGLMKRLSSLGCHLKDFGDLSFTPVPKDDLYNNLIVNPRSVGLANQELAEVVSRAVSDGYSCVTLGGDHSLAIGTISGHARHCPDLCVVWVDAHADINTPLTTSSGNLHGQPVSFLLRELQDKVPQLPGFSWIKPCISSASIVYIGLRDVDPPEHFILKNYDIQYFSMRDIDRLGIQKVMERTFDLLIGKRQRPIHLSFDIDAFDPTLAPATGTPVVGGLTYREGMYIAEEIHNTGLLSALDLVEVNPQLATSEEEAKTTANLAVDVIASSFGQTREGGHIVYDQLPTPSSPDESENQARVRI
From the text: The mechanism of action of enzyme inhibitors can be broadly divided into competitive, uncompetitive and non-competitive and can be identified as such based on their effects on Km and Vmax.
A competitive inhibitor binds only to free enzyme, often at the active site, causing the affinity of the enzyme for the substrate to be reduced (increased Km) with no change to the maximum enzyme rate (Vmax).
The enzyme's affinity for the substrate is increased (Km is decreased) and the maximum enzyme rate (Vmax) is decreased.
A non-competitive inhibitor binds equally well to free enzyme and enzyme-substrate complex. The enzyme's affinity for the substrate (Km) is unchanged and the maximum enzyme rate (Vmax) is decreased. […]
The mechanism of action of the lead identification clone C0021158 IgG was investigated using the human ARG2 (trimer) enzyme inhibition assay as well as isothermal titration calorimetry.
The enzyme inhibition assay is described in section 1.5 and is a biochemical assay that measures production of urea, the product of L-arginine turnover by ARG2. To investigate the mechanism of action of C0021158 IgG, four point titrations of C0021158 IgG (1000, 100, 30 and 10 nM) were set up in the presence of 11 concentrations of arginine ([…]) and the reaction allowed to proceed for 80, 60, 45, 30, 15 or 5 minutes before the addition of the urea detection reagents O-Phthaldialdehyde and N-(1-Napthyl)ethylenediamine.
Raw data from each separate concentration of C0021158 IgG was plotted as a function of time for each concentration of arginine and fitted using a linear fit (GraphPad Prism) to derive initial velocities (slope values).
Initial velocity data was plotted against arginine concentration for each concentration of C0021158 IgG (FIG. 15A). Each trace was fitted to the Michaelis-Menten model (Y=Vmax*X/(Km+X)) in GraphPad Prism to derive maximum velocity (Vmax) and enzyme/substrate affinity (Km) values at each inhibitor concentration (Table 23).
In the case of C0021158 IgG inhibitor Vmax decreased in the presence of C0021158 IgG inhibitor, ruling out a competitive mode of action and pointing towards an uncompetitive or a non-competitive mode of action. To distinguish non-competitive from uncompetitive modes of action the effect on Km must be assessed. […] This uncharacteristic profile led to poor fitting of the data making it difficult to derive an accurate Km. The lack of accurate Km data means C0021158 IgG cannot be assigned as uncompetitive or non-competitive.

[1] = target: T2, THP-1 lysate derived human trimeric ARG2 (Homo sapiens, UniProt P78540); assay: THP-1 lysate derived human ARG2 enzyme inhibition assay; format: biochemical; details: recombinant human IgG1, lysate without plasma (section 3.3), FIG. 13; read-out: THP-1 lysate ARG2 EIA IC50
T2 construct: expressed in transfected cells; host or cells: THP-1 cells overexpressing human ARG2 (cell lysate)
T2 sequence (P78540 23-354): T1 sequence (P78540 23-354)
Method: Anti-ARG2 IgGs were tested for their ability to inhibit mammalian expressed human ARG2 produced in transfected THP-1 cells. To do this cell lysates were prepared from THP-1 cells overexpressing human ARG2 and from wild type THP-1 cells. 350 million cells were suspended in 3 ml tris buffered saline (25 mM Tris+150 mM sodium chloride in dH2O, pH 7.4) and cell lysates prepared by passing through a 26G needle 20 times. A BCA assay was used to measure the protein concentration in the lysate. […] Antibodies were tested alongside N-Hydroxyl-L-Arginine (a small molecule competitive inhibitor of ARG2) as a positive control and CEA6 (irrelevant isotype control antibody) as a negative control. Data points were plotted and IC50 values determined using a four parameter fit in GraphPad Prism (FIG. 11, Table 13).
Anti-ARG2 IgGs were tested for their ability to inhibit to mammalian expressed human ARG2 produced in transfected THP-1 cells. […] Urea detection reagents, O-Phthaldialdehyde (1.5 mM O-Phthaldialdehyde, 7% H2SO4, 0.03% Brij L23) and N-(1-Napthyl)ethylenediamine (1.66 mM N-(1-Napthyl)ethylenediamine, 81 mM Boric acid, 21% H2SO4, 0.03% Brij L23) were mixed 1:1 just prior to use and 80 μl/well were added, incubated for 1 hour at room temperature and absorbance at 505 nm was read on a Pherastar plate reader. […]

mode of action on ARG2 (human ARG2 (trimer)): not competitive
mode of action on ARG2 (human ARG2 (trimer); listed as C0021158 fab): allosteric inhibitor
B1: C0021158 IgG: anti-ARG2 antibody, VH SEQ ID NO: 282, VL SEQ ID NO: 287; IgG and Fab versions carry these sequences (antibody, listed as Homo sapiens, V domains shown)
VH: EVQLLESGGGLVQPGGSLRLSCAASGFTFRYEVAAWVRQAPGKGLEWVSAISGPIPKGYYADSVKGRFTISRDNSKNTLYLQMNSLRAEDTAVYYCARLRADLGLYMDLWGRGTLVTVSS
VL: QSVLTQPPSVSAAPGQKVTISCSGSSSNIGNHYVSWYQQLPGTAPKLLIYDNSERTAGVPDRFSGSKSGTSATLGITGLQTGDEADYYCGTWDELTSNLVFGGGTKLTVL
modifications: C0021158 IgG
Km (human ARG2 (trimer); 10 nM C0021158 IgG): 1.64 mM
Vmax (human ARG2 (trimer); 10 nM C0021158 IgG): 148.5 AU ms^−1
Vmax (human ARG2 (trimer); 30 nM C0021158 IgG): 89.23 AU ms^−1
Km (human ARG2 (trimer); 100 nM C0021158 IgG): 0.59 mM
Vmax (human ARG2 (trimer); 100 nM C0021158 IgG): 112.8 AU ms^−1
Vmax (human ARG2 (trimer); 1 μM C0021158 IgG): 103.4 AU ms^−1

IC50 [1]: 5.36 nM
B2: C0021158: anti-ARG2 antibody, second generation lead, VH SEQ ID NO: 272, VL SEQ ID NO: 277 (antibody, listed as Homo sapiens, V domains shown)
VH: B1 VH with S119P
VL: B1 VL
modifications: C0021158

From US20220403048A1, “BINDING MOLECULES TO ARGINASE II [ARG2]” (Cancer Research Technology Limited, priority 2019, published 2022)
